Target: full-length recombinant human proteoglycan 4 (rhPRG4) (human, UniProt Q92954 25-1404)
Test: SPR

B1: recombinant human matrix metalloproteinase 9 (rhMMP-9) (enzyme)
chain: APRQRQSTLVLFPGDLRTNLTDRQLAEEYLYRYGYTRVAEMRGESKSLGPALLLLQKQLSLPETGELDSATLKAMRTPRCGVPDLGRFQTFEGDLKWHHHNITYWIQNYSEDLPRAVIDDAFARAFALWSAVTPLTFTRVYSRDADIVIQFGVAEHGDGYPFDGKDGLLAHAFPPGPGIQGDAHFDDDELWSLGKGVVVPTRFGNADGAACHFPFIFEGRSYSACTTDGRSDGLPWCSTTANYDTDDRFGFCPSERLYTQDGNADGKPCQFPFIFQGQSYSACTTDGRSDGYRWCATTANYDRDKLFGFCPTRADSTVMGGNSAGELCVFPFTFLGKEYSTCTSEGRGDGRLWCATTSNFDSDKKWGFCPDQGYSLFLVAAHEFGHALGLDHSSVPEALMYPMYRFTEGPPLHKDDVNGIRHLYGPRPEPEPRPPTTTTPQPTAPPTVCPTGPPTVHPSERPTAGPTGPPSAGPTGPPTAGPSTATTVPLSPVDDACNVNIFDAIAEIGNQLYLFKDGKYWRFSEGRGSRPQGPFLIADKWPALPRKLDSVFEERLSKKLFFFSGRQVWVYTGASVLGPRRLDKLGLGADVAQVTGALRSGRGKMLLFSGRRLWRFDVKAQMVDPRSASEVDRMFPGVPLDTHDVFQYREKAYFCQDRFYWRVSSRSELNQVDQVGYVTYDILQCPED
Kd: 42.1 nM | koff: 0.000937 s⁻¹ | kon: 22300 M⁻¹ s⁻¹

— article PMC8491169 (Experimental eye research, 2021)
